Source: patent US20230203435A1 (SYSMEX, published 2023)
Each block holds one binder with its values, some of them ahead of it.

How the values were obtained:
[1] = target: T1, recombinant human ErbB2/Her2 Fc chimera (R&D Systems Inc.) (human, UniProt P04626 23-652); assay: ELISA, antigen coated at 5 ug/mL, biotin-labeled antibody, HRP-streptavidin
T1 construct: Bought reagent, coated on the ELISA plate; also called antigen of trastuzumab; Fc part of the bought chimera not given
Method: (§1) The affinity of each antibody for an antigen was measured by ELISA method. As antigens of each antibody, human CD20/MS4A1 full-length protein, His tag (HEK293) (ACROBiosystems Inc.), recombinant human ErbB2/Her2 Fc chimera (R&D Systems Inc.), chicken egg white-derived lysozyme (Sigma-Aldrich), animal free recombinant human IL-6 (PeproTech Inc.) and interleukin 8 (CXCL8) (Shenandoah Biotechnology, Inc.) were used. Specific operations are as follows. A solution of various antigens diluted to 5 μg/mL with PBS was added to each well of a 96-well plate (Nunc), and the plate was incubated at 4° C. overnight. After removing the solution from each well, 1% BSA/PBS was added, and the plate was incubated at room temperature for 3 hours. The solution was removed from each well, and then the plate washed three times with PBST. An antibody solution was added to each well, and the plate was incubated at room temperature for 15 minutes. The solution was removed from each well, and then the plate washed three times with PBST. A solution of HRP-labeled anti-human IgG Fc antibody (Bethyl Laboratories, Inc.), HRP-labeled goat F(ab′)2 fragment anti-mouse IgG (H+L) (Beckman Coulter, Inc.) or HRP-conjugated streptavidin (Thermo Fisher Scientific Inc.) diluted to 0.3 μg/mL with 1% BSA/PBS was added to each well, and the plate was incubated at room temperature for 1 hour. The solution was removed from each well, and then the plate washed three times with PBST. Chromogenic reaction was performed using KPL TMB (registered trademark) Peroxidase Substrate (SeraCare Life Sciences, Inc.) and the chromogenic reaction was stopped using KPL TMB (registered trademark) Peroxidase Stop Solution (SeraCare Life Sciences, Inc.). Absorbance at 450 nm was measured using a SpectraMax (registered trademark) 190 microplate reader (Molecular Devices, LLC).

[2] = target: T2, human CD20/MS4A1 full-length protein, His tag (HEK293) (ACROBiosystems Inc.) (human, UniProt P11836 1-297); assay: ELISA, antigen coated at 5 ug/mL, HRP anti-human IgG Fc detection
T2 construct: mature; Bought reagent, coated on the ELISA plate; also called antigen of rituximab; not shown: His tag
T2 sequence (looked up): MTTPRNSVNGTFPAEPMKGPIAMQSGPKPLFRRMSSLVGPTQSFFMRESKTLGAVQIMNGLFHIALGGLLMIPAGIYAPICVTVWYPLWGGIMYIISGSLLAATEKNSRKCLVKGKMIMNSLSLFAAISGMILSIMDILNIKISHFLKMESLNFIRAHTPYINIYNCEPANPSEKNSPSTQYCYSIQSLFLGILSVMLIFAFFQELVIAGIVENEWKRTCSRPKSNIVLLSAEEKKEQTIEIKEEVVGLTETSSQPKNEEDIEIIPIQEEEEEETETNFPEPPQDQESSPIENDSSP
Method: as §1

[3] = target: T3, animal free recombinant human IL-6 (PeproTech Inc.) (human, UniProt P05231 30-212); assay: as above
T3 construct: Bought reagent, coated on the ELISA plate; also called interleukin-6
Method: as §1

[4] = target: T4, interleukin 8 (CXCL8) (Shenandoah Biotechnology, Inc.) (UniProt P10145 28-99, limits assumed); assay: as above
T4 construct: Bought reagent, coated on the ELISA plate; also called IL-8
T4 sequence (looked up): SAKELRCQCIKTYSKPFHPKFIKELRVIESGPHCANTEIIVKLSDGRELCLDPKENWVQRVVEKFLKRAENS
Method: as §1

B1: R3 variant of trastuzumab (antibody, human IgG1, kappa, V domains shown)
VH: not shown
VL: DIQMTQSPSSLSASVGDRVTITCRASQDVNTAVAWYQQKPGKAPKLLIYSASFLYSGVPSRFSGRRRGTRFTLTISSLQPEDFATYYCQQHYTTPPTFGQGTKVEIKR
notes: IgG; Light chain positions 65, 67 and 70 (Chothia) are arginine; Labeled with biotin (Biotin Labeling Kit-NH2) before the ELISA; also called trastuzumab R3
EC50 [1]: 0.0252 µg/mL | EC50 ratio [1]: 2 ratio (EC50 in WT taken as 1.0)

B3: R3 variant of rituximab (antibody, human IgG1, kappa, V domains shown)
VH: QVQLQQPGAELVKPGASVKMSCKASGYTFTSYNMHWVKQTPGRGLEWIGAIYPGNGDTSYNQKFKGKATLTADKSSSTAYMQLSSLTSEDSAVYYCARSTYYGGDWYFNVWGAGTTVTVSA
VL: QIVLSQSPAILSASPGEKVTMTCRASSSVSYIHWFQQKPGSSPKPWIYATSNLASGVPVRFRGRGRGTSYSLTISRVEAEDAATYYCQQWTSNPPTFGGGTKLEIKR
notes: IgG; Light chain positions 63, 65 and 67 (Chothia) are arginine; Heavy chain is that of rituximab; also called rituximab R3
EC50 [2]: 1.71 µg/mL | EC50 ratio [2]: 74.6 ratio (EC50 in WT taken as 1.0)

B6: anti-IL-6 antibody (mouse/human chimeric antibody), light chain FR3 not substituted (antibody, human IgG1, kappa, V domains shown)
VH: EVQLQQSGPELVKPGASVKMSCKASGYTFTSYVMHWVKQKPGQGLEWIGYINPYNDGTKYNEKFKGKATLTSDKSSSTAYMELSSLTSEDSAVYYCAREGYGNLERDCWGQGTSVTVSS
VL: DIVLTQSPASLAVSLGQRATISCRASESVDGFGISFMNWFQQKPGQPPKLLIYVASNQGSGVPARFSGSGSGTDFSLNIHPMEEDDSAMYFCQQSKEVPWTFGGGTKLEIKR
notes: also called WT; anti-interleukin (IL)-6 antibody
EC50 [3]: 0.041 µg/mL | EC50 ratio [3]: 1 ratio (EC50 in WT taken as 1.0)

B8: R3 variant of anti-IL-8 antibody (antibody, human IgG1, kappa, V domains shown)
VH: EVKLVESGGGLVKPGGSLKLSCAASGFTFNNYAMSWVRQTPEKRLEWVASISSGGNTYYPDSVKGRFTLSRDNARNILYLQMSRLRSEDTAMYYCARDKLRLPNWYFDVWGAGTTVTVSS
VL: DIVLTQSPPSLAVSLGQRATISCKASQSVDYDGDSYMNWYQQKPGQPPKVLIYGASNLESGIPARFRGRGRGTDFTLNIYPVEEEDAATYYCQQSNEDPPTFGGGTKLEIKR
notes: IgG; Light chain positions 63, 65 and 67 (Chothia) are arginine; also called anti-IL-8 antibody R3
EC50 [4]: 0.269 µg/mL | EC50 ratio [4]: 1.4 ratio (EC50 in WT taken as 1.0)

Now from value to binder:

EC50 [1]: 0.0342 µg/mL | EC50 ratio [1]: 1.5 ratio (EC50 in WT taken as 1.0)
B2: R4 variant of trastuzumab (antibody, human IgG1, kappa, V domains shown)
VH: not shown
VL: DIQMTQSPSSLSASVGDRVTITCRASQDVNTAVAWYQQKPGKAPKLLIYSASFLYSGVPSRFRGRRRGTRFTLTISSLQPEDFATYYCQQHYTTPPTFGQGTKVEIKR
notes: IgG; Light chain positions 63, 65, 67 and 70 (Chothia) are arginine; Labeled with biotin (Biotin Labeling Kit-NH2) before the ELISA; also called trastuzumab R4

EC50 [2]: 0.027 µg/mL | EC50 ratio [2]: 4710 ratio (EC50 in WT taken as 1.0)
B4: R5 variant of rituximab (antibody, human IgG1, kappa, V domains shown)
VH: QVQLQQPGAELVKPGASVKMSCKASGYTFTSYNMHWVKQTPGRGLEWIGAIYPGNGDTSYNQKFKGKATLTADKSSSTAYMQLSSLTSEDSAVYYCARSTYYGGDWYFNVWGAGTTVTVSA
VL: QIVLSQSPAILSASPGEKVTMTCRASSSVSYIHWFQQKPGSSPKPWIYATSNLASGVPVRFRGRGRGTRYRLTISRVEAEDAATYYCQQWTSNPPTFGGGTKLEIKR
notes: IgG; Light chain positions 63, 65, 67, 70 and 72 (Chothia) are arginine; also called rituximab R5

EC50 [2]: 127 µg/mL
B5: rituximab (mouse/human chimeric antibody), light chain FR3 not substituted (antibody, human IgG1, kappa, V domains shown)
VH: QVQLQQPGAELVKPGASVKMSCKASGYTFTSYNMHWVKQTPGRGLEWIGAIYPGNGDTSYNQKFKGKATLTADKSSSTAYMQLSSLTSEDSAVYYCARSTYYGGDWYFNVWGAGTTVTVSA
VL: QIVLSQSPAILSASPGEKVTMTCRASSSVSYIHWFQQKPGSSPKPWIYATSNLASGVPVRFSGSGSGTSYSLTISRVEAEDAATYYCQQWTSNPPTFGGGTKLEIKR
notes: also called WT; rituximab WT

EC50 [3]: 0.0327 µg/mL | EC50 ratio [3]: 1.3 ratio (EC50 in WT taken as 1.0)
B7: R5 variant of anti-IL-6 antibody (antibody, human IgG1, kappa, V domains shown)
VH: EVQLQQSGPELVKPGASVKMSCKASGYTFTSYVMHWVKQKPGQGLEWIGYINPYNDGTKYNEKFKGKATLTSDKSSSTAYMELSSLTSEDSAVYYCAREGYGNLERDCWGQGTSVTVSS
VL: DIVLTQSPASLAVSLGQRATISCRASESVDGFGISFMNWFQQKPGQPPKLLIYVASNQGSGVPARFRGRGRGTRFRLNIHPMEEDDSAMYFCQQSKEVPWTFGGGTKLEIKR
notes: IgG; Light chain positions 63, 65, 67, 70 and 72 (Chothia) are arginine; also called anti-IL-6 antibody R5

EC50 [4]: 0.0598 µg/mL | EC50 ratio [4]: 6.5 ratio (EC50 in WT taken as 1.0)
B9: R4 variant of anti-IL-8 antibody (antibody, human IgG1, kappa, V domains shown)
VH: EVKLVESGGGLVKPGGSLKLSCAASGFTFNNYAMSWVRQTPEKRLEWVASISSGGNTYYPDSVKGRFTLSRDNARNILYLQMSRLRSEDTAMYYCARDKLRLPNWYFDVWGAGTTVTVSS
VL: DIVLTQSPPSLAVSLGQRATISCKASQSVDYDGDSYMNWYQQKPGQPPKVLIYGASNLESGIPARFRGRGRGTRFTLNIYPVEEEDAATYYCQQSNEDPPTFGGGTKLEIKR
notes: IgG; Light chain positions 63, 65, 67 and 70 (Chothia) are arginine; also called anti-IL-8 antibody R4

EC50 [4]: 0.39 µg/mL | EC50 ratio [4]: 1 ratio (EC50 in WT taken as 1.0)
B10: anti-IL-8 antibody (mouse/human chimeric antibody), light chain FR3 not substituted (antibody, human IgG1, kappa, V domains shown)
VH: EVKLVESGGGLVKPGGSLKLSCAASGFTFNNYAMSWVRQTPEKRLEWVASISSGGNTYYPDSVKGRFTLSRDNARNILYLQMSRLRSEDTAMYYCARDKLRLPNWYFDVWGAGTTVTVSS
VL: DIVLTQSPPSLAVSLGQRATISCKASQSVDYDGDSYMNWYQQKPGQPPKVLIYGASNLESGIPARFSGSGSGTDFTLNIYPVEEEDAATYYCQQSNEDPPTFGGGTKLEIKR
notes: also called WT; anti-IL-8 antibody WT
